This is an account of results in patent US20030114379A1.

The assay has as its target CCR1 (human) (UniProt P32246). Description: cell-based or functional assay.

Chain of CCR1 (human) (P32246 whole entry): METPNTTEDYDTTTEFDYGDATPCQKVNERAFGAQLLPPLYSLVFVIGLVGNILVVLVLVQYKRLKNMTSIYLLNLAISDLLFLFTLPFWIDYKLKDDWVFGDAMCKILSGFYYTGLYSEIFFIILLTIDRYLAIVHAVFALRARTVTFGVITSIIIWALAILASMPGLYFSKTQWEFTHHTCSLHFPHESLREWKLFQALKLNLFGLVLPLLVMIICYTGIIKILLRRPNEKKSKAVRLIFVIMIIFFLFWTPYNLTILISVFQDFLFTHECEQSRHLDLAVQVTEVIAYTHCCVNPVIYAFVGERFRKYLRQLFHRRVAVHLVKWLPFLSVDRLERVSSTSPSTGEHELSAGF

On to “MPIF-1 wild type (mature MPIF-1 secreted from a baculovirus expression system) (from UniProt P55773 22-120) (ligand)”, for which the Ca2+ mobilization (ng/mL): minimum concentration required to mobilize calcium in human monocytes and/or THP-1 cells; MPIF-1/HG00300-B5 came to 1000 ng/mL.
